Numbered stars: 1 amine (or outer) side, 2 acyl side, 3 side chain; on linkers, the order of the positions; unused ones are H or OH. Square brackets hold non-standard residues; d marks the D form. Side chains are listed from the residue outwards. Ends that are not written are not given here. * marks the point of attachment. C20 diacid = O=C(O)CCCCCCCCCCCCCCCCCCC(=O)*; γGlu = O=C(O)[C@H](CCC(=O)[*:2])N[*:1]; AEEA = NCCOCCOCC(=O)O; Aib = CC(C)(N)C(=O)O
B1: Example 42 (peptide)
peptide: Y[Aib]EGTFTSDYSILLDKIAQ[Aib]AFIEYLIEGGPSK([AEEA-AEEA-γGlu-C20 diacid])GAPPPS-NH2
modifications: N-terminus assumed
SMILES: CC[C@H](C)[C@H](NC(=O)[C@H](CCCCN)NC(=O)[C@H](CC(=O)O)NC(=O)[C@H](CC(C)C)NC(=O)[C@H](CC(C)C)NC(=O)[C@@H](NC(=O)[C@H](CO)NC(=O)[C@H](Cc1ccc(O)cc1)NC(=O)[C@H](CC(=O)O)NC(=O)[C@H](CO)NC(=O)[C@@H](NC(=O)[C@H](Cc1ccccc1)NC(=O)[C@@H](NC(=O)CNC(=O)[C@H](CCC(=O)O)NC(=O)C(C)(C)NC(=O)[C@@H](N)Cc1ccc(O)cc1)[C@@H](C)O)[C@@H](C)O)[C@@H](C)CC)C(=O)N[C@@H](C)C(=O)N[C@@H](CCC(N)=O)C(=O)NC(C)(C)C(=O)N[C@@H](C)C(=O)N[C@@H](Cc1ccccc1)C(=O)N[C@H](C(=O)N[C@@H](CCC(=O)O)C(=O)N[C@@H](Cc1ccc(O)cc1)C(=O)N[C@@H](CC(C)C)C(=O)N[C@H](C(=O)N[C@@H](CCC(=O)O)C(=O)NCC(=O)NCC(=O)N1CCC[C@H]1C(=O)N[C@@H](CO)C(=O)N[C@@H](CCCCNC(=O)COCCOCCNC(=O)COCCOCCNC(=O)CC[C@H](NC(=O)CCCCCCCCCCCCCCCCCCC(=O)O)C(=O)O)C(=O)NCC(=O)N[C@@H](C)C(=O)N1CCC[C@H]1C(=O)N1CCC[C@H]1C(=O)N1CCC[C@H]1C(=O)N[C@@H](CO)C(N)=O)[C@@H](C)CC)[C@@H](C)CC
B2: Example 39 (peptide)
peptide: Y[Aib]EGTFTSDYSILLDKIAQ[Aib]AFIEYLIEGK([AEEA-AEEA-γGlu-C20 diacid])PSSGAPPPS-NH2
modifications: N-terminus assumed
SMILES: CC[C@H](C)[C@H](NC(=O)[C@H](CCCCN)NC(=O)[C@H](CC(=O)O)NC(=O)[C@H](CC(C)C)NC(=O)[C@H](CC(C)C)NC(=O)[C@@H](NC(=O)[C@H](CO)NC(=O)[C@H](Cc1ccc(O)cc1)NC(=O)[C@H](CC(=O)O)NC(=O)[C@H](CO)NC(=O)[C@@H](NC(=O)[C@H](Cc1ccccc1)NC(=O)[C@@H](NC(=O)CNC(=O)[C@H](CCC(=O)O)NC(=O)C(C)(C)NC(=O)[C@@H](N)Cc1ccc(O)cc1)[C@@H](C)O)[C@@H](C)O)[C@@H](C)CC)C(=O)N[C@@H](C)C(=O)N[C@@H](CCC(N)=O)C(=O)NC(C)(C)C(=O)N[C@@H](C)C(=O)N[C@@H](Cc1ccccc1)C(=O)N[C@H](C(=O)N[C@@H](CCC(=O)O)C(=O)N[C@@H](Cc1ccc(O)cc1)C(=O)N[C@@H](CC(C)C)C(=O)N[C@H](C(=O)N[C@@H](CCC(=O)O)C(=O)NCC(=O)N[C@@H](CCCCNC(=O)COCCOCCNC(=O)COCCOCCNC(=O)CC[C@H](NC(=O)CCCCCCCCCCCCCCCCCCC(=O)O)C(=O)O)C(=O)N1CCC[C@H]1C(=O)N[C@@H](CO)C(=O)N[C@@H](CO)C(=O)NCC(=O)N[C@@H](C)C(=O)N1CCC[C@H]1C(=O)N1CCC[C@H]1C(=O)N1CCC[C@H]1C(=O)N[C@@H](CO)C(N)=O)[C@@H](C)CC)[C@@H](C)CC
B3: Example 38 (peptide)
peptide: Y[Aib]EGTFTSDYSILLDKIAQ[Aib]AFIEYLIEK([AEEA-AEEA-γGlu-C20 diacid])GPSSGAPPPS-NH2
modifications: N-terminus assumed
SMILES: CC[C@H](C)[C@H](NC(=O)[C@H](CCCCN)NC(=O)[C@H](CC(=O)O)NC(=O)[C@H](CC(C)C)NC(=O)[C@H](CC(C)C)NC(=O)[C@@H](NC(=O)[C@H](CO)NC(=O)[C@H](Cc1ccc(O)cc1)NC(=O)[C@H](CC(=O)O)NC(=O)[C@H](CO)NC(=O)[C@@H](NC(=O)[C@H](Cc1ccccc1)NC(=O)[C@@H](NC(=O)CNC(=O)[C@H](CCC(=O)O)NC(=O)C(C)(C)NC(=O)[C@@H](N)Cc1ccc(O)cc1)[C@@H](C)O)[C@@H](C)O)[C@@H](C)CC)C(=O)N[C@@H](C)C(=O)N[C@@H](CCC(N)=O)C(=O)NC(C)(C)C(=O)N[C@@H](C)C(=O)N[C@@H](Cc1ccccc1)C(=O)N[C@H](C(=O)N[C@@H](CCC(=O)O)C(=O)N[C@@H](Cc1ccc(O)cc1)C(=O)N[C@@H](CC(C)C)C(=O)N[C@H](C(=O)N[C@@H](CCC(=O)O)C(=O)N[C@@H](CCCCNC(=O)COCCOCCNC(=O)COCCOCCNC(=O)CC[C@H](NC(=O)CCCCCCCCCCCCCCCCCCC(=O)O)C(=O)O)C(=O)NCC(=O)N1CCC[C@H]1C(=O)N[C@@H](CO)C(=O)N[C@@H](CO)C(=O)NCC(=O)N[C@@H](C)C(=O)N1CCC[C@H]1C(=O)N1CCC[C@H]1C(=O)N1CCC[C@H]1C(=O)N[C@@H](CO)C(N)=O)[C@@H](C)CC)[C@@H](C)CC
B4: Example 41 (peptide)
peptide: Y[Aib]EGTFTSDYSILLDKIAQ[Aib]AFIEYLIEGGPK([AEEA-AEEA-γGlu-C20 diacid])SGAPPPS-NH2
modifications: N-terminus assumed
SMILES: CC[C@H](C)[C@H](NC(=O)[C@H](CCCCN)NC(=O)[C@H](CC(=O)O)NC(=O)[C@H](CC(C)C)NC(=O)[C@H](CC(C)C)NC(=O)[C@@H](NC(=O)[C@H](CO)NC(=O)[C@H](Cc1ccc(O)cc1)NC(=O)[C@H](CC(=O)O)NC(=O)[C@H](CO)NC(=O)[C@@H](NC(=O)[C@H](Cc1ccccc1)NC(=O)[C@@H](NC(=O)CNC(=O)[C@H](CCC(=O)O)NC(=O)C(C)(C)NC(=O)[C@@H](N)Cc1ccc(O)cc1)[C@@H](C)O)[C@@H](C)O)[C@@H](C)CC)C(=O)N[C@@H](C)C(=O)N[C@@H](CCC(N)=O)C(=O)NC(C)(C)C(=O)N[C@@H](C)C(=O)N[C@@H](Cc1ccccc1)C(=O)N[C@H](C(=O)N[C@@H](CCC(=O)O)C(=O)N[C@@H](Cc1ccc(O)cc1)C(=O)N[C@@H](CC(C)C)C(=O)N[C@H](C(=O)N[C@@H](CCC(=O)O)C(=O)NCC(=O)NCC(=O)N1CCC[C@H]1C(=O)N[C@@H](CCCCNC(=O)COCCOCCNC(=O)COCCOCCNC(=O)CC[C@H](NC(=O)CCCCCCCCCCCCCCCCCCC(=O)O)C(=O)O)C(=O)N[C@@H](CO)C(=O)NCC(=O)N[C@@H](C)C(=O)N1CCC[C@H]1C(=O)N1CCC[C@H]1C(=O)N1CCC[C@H]1C(=O)N[C@@H](CO)C(N)=O)[C@@H](C)CC)[C@@H](C)CC
B5: Example 40 (peptide)
peptide: Y[Aib]EGTFTSDYSILLDKIAQ[Aib]AFIEYLIEGGK([AEEA-AEEA-γGlu-C20 diacid])SSGAPPPS-NH2
modifications: N-terminus assumed
SMILES: CC[C@H](C)[C@H](NC(=O)[C@H](CCCCN)NC(=O)[C@H](CC(=O)O)NC(=O)[C@H](CC(C)C)NC(=O)[C@H](CC(C)C)NC(=O)[C@@H](NC(=O)[C@H](CO)NC(=O)[C@H](Cc1ccc(O)cc1)NC(=O)[C@H](CC(=O)O)NC(=O)[C@H](CO)NC(=O)[C@@H](NC(=O)[C@H](Cc1ccccc1)NC(=O)[C@@H](NC(=O)CNC(=O)[C@H](CCC(=O)O)NC(=O)C(C)(C)NC(=O)[C@@H](N)Cc1ccc(O)cc1)[C@@H](C)O)[C@@H](C)O)[C@@H](C)CC)C(=O)N[C@@H](C)C(=O)N[C@@H](CCC(N)=O)C(=O)NC(C)(C)C(=O)N[C@@H](C)C(=O)N[C@@H](Cc1ccccc1)C(=O)N[C@H](C(=O)N[C@@H](CCC(=O)O)C(=O)N[C@@H](Cc1ccc(O)cc1)C(=O)N[C@@H](CC(C)C)C(=O)N[C@H](C(=O)N[C@@H](CCC(=O)O)C(=O)NCC(=O)NCC(=O)N[C@@H](CCCCNC(=O)COCCOCCNC(=O)COCCOCCNC(=O)CC[C@H](NC(=O)CCCCCCCCCCCCCCCCCCC(=O)O)C(=O)O)C(=O)N[C@@H](CO)C(=O)N[C@@H](CO)C(=O)NCC(=O)N[C@@H](C)C(=O)N1CCC[C@H]1C(=O)N1CCC[C@H]1C(=O)N1CCC[C@H]1C(=O)N[C@@H](CO)C(N)=O)[C@@H](C)CC)[C@@H](C)CC

Legend:
[1] = biological target: T1, human GIP receptor (human, UniProt P48546 22-466); assay: cell-based or functional assay
T1 sequence (looked up): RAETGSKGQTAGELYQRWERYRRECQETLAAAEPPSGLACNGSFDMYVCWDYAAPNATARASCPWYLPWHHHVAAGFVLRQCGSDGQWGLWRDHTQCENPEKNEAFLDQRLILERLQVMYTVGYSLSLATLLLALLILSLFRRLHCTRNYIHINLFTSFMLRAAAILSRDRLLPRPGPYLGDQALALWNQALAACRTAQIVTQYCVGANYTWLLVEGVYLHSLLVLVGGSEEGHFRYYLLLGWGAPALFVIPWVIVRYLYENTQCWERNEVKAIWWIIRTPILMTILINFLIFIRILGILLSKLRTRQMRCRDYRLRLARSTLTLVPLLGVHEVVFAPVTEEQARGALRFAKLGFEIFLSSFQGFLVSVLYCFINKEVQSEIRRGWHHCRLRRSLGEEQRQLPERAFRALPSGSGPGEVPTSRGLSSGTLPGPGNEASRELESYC

[2] = biological target: human GLP-1 receptor (human, UniProt P43220 24-463); assay: cell-based or functional assay

Binder	hGIPR cAMP EC50 ratio [1]	hGIPR cAMP Rel EC50 [1] [nM]	hGLP1R cAMP EC50 ratio [2]	hGLP1R cAMP Rel EC50 [2] [nM]
B1	0.897	0.161	0.0471	1.45
B2	1.07	0.133	0.0323	1.92
B3	0.967	0.147	0.0217	2.82
B4	0.637	0.229	0.0637	0.96
B5	1.06	0.136	0.0801	0.746
